# Test results taken from paper PMC3757182, “ATPase Mechanism of the 5′-3′ DNA Helicase, RecD2” (The Journal of Biological Chemistry, 2013).
# T1: PcrA (Geobacillus stearothermophilus, UniProt P56255)
# T1 construct: recombinant, prepared as described previously
# T1 sequence (P56255 1-724): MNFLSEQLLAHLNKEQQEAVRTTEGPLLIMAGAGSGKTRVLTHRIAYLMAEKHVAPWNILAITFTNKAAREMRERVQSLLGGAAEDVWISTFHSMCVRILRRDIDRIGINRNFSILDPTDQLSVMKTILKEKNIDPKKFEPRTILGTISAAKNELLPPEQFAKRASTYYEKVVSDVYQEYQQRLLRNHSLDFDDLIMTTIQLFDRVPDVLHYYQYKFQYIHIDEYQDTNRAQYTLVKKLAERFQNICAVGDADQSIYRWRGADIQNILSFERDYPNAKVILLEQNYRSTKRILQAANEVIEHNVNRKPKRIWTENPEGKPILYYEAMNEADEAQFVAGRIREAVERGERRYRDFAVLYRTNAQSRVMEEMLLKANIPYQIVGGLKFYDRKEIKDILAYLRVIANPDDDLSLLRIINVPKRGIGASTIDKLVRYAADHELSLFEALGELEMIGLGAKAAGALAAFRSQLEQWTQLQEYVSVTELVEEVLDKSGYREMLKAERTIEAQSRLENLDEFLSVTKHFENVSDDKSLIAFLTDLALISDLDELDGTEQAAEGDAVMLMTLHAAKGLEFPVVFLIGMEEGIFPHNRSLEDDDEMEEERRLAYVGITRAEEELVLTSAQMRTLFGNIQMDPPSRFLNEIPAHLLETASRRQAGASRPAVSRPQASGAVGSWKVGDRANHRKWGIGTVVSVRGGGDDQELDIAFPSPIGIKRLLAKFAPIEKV
# B1: RecD2 (Deinococcus radiodurans R1 = ATCC 13939 = DSM 20539) (protein)
# chain: SQQGLERRLLAGLQGLGLTINQAQRAVKHFGADALDRLEKDLFTLTEVEGIGFLTADKLWQARGGALDDPRRLTAAAVYALQLAGTQAGHSFLPRSRAEKGVVHYTRVTPGQARLAVETAVELGRLSEDDSPLFAAEAAATGEGRIYLPHVLRAEKKLASLIRTLLATPPADGAGNDDWAVPKKARKGLSEEQASVLDQLAGHRLVVLTGGPGTGKSTTTKAVADLAESLGLEVGLCAPTGKAARRLGEVTGRTASTVHRLLGYGPQGFRHNHLEPAPYDLLIVDEVSMMGDALMLSLLAAVPPGARVLLVGDTDQLPPVDAGLPLLALAQAAPTIKLTQVYRQAAKNPIIQAAHGLLHGEAPAWGDKRLNLTEIEPDGGARRVALMVRELGGPGAVQVLTPMRKGPLGMDHLNYHLQALFNPGEGGVRIAEGEARPGDTVVQTKNDYNNEIFNGTLGMVLKAEGARLTVDFDGNVVELTGAELFNLQLGYALTVHRAQGSEWGTVLGVLHEAHMPMLSRNLVYTALTRARDRFFSAGSASAWQIAAARQREARNTALLERIRAH
# notes: N-terminal truncation lacking the first 150 amino acids; recombinant; monomer
# How the values were obtained:
# PcrA [1] = molecular target: T1, PcrA; test: stopped-flow fluorescence, quench-flow HPLC, Pi release, single turnover; type: biochemical; conditions: 8 μM PcrA, 10 μM dT20, 2 μM deac-aminoATP; 3 mM MgCl2, pH 7.5; labelled compound
# PcrA [2] = molecular target: T1, PcrA; test: stopped-flow fluorescence, koff/kon; type: binding
# [3] = substrate: CNc1ccccc1C(=O)O[C@H]1C[C@H](n2cnc3c(N)ncnc32)O[C@@H]1COP(=O)(O)OP(=O)(O)OP(=O)(O)O; test: steady-state ATPase, MDCC-PBP phosphate release; type: biochemical, Deinococcus radiodurans; conditions: with 500 nM dT20 ssDNA, 10 mM MgCl2, pH 7.5, 20 °C
# Source text: (§1) steady-state ATPase, MDCC-PBP phosphate release on RecD2
# [4] = substrate: Nc1ncnc2c1ncn2[C@@H]1O[C@H](COP(=O)(O)OP(=O)(O)OP(=O)(O)O)[C@@H](O)[C@H]1O; test: steady-state ATPase, MDCC-PBP phosphate release; type: biochemical, Deinococcus radiodurans; conditions: with 500 nM dT20 ssDNA, 10 mM MgCl2, pH 7.5, 20 °C
# Source text: as §1
molecule,measurement,setting,value
"CCN(CC)c1ccc2cc(C(=O)N[C@H]3[C@@H](O)[C@H](n4cnc5c(N)ncnc54)O[C@@H]3COP(=O)(O)OP(=O)(O)OP(=O)(O)O)c(=O)oc2c1 [deac-aminoATP, 3′-(7-diethylaminocoumarin-3-carbonylamino)-3′-deoxyadenosine-5′-triphosphate]","stopped-flow fluorescence, quench-flow HPLC, Pi release, single turnover",PcrA [1],"After mixing excess PcrA·dT20 with deac-aminoATP, there was a biphasic increase in fluorescence"
CCN(CC)c1ccc2cc(C(=O)N[C@H]3[C@@H](O)[C@H](n4cnc5c(N)ncnc54)O[C@@H]3COP(=O)(O)OP(=O)(O)O)c(=O)oc2c1 [deac-aminoADP],Kd,PcrA [2],1700 nM
B1,Km,[3],12.1 ± 1.7 µM
same,kcat,[3],40.2 ± 2.4 s⁻¹
same,Km,[4],30.3 ± 1.5 µM
same,kcat,[4],86.9 ± 1.5 s⁻¹
